These results are taken from patent US20250000946A1 (WUXI BIOLOGICS IRELAND, published 2025).

Assay [1] has as its target T1, W3XX115-T2U0.E44-6.uIgG4V322 (human, UniProt P60568 21-149).
T1 construct: IL-2 del STLT; E44 format, IgG4 FALA; IL-2 part tied by the design 'Del STLT'; not shown: IgG4 hinge-Fc with FALA (uIgG4V322), no linker
Briefly: SPR Biacore 8K; variant captured via anti-human Fc, IL-2Rα ECD-His injected; steady state. On the procedure:
IL-2 variants binding affinity to IL-2 receptor were detected by SPR using Biacore 8K. For IL-2Rα binding assay, each variant was captured on anti-human Fc immobilized CM5 sensor chip (cytiva). W3XX115-hPro1.ECD.His at different concentrations were injected over the sensor chip at a flow rate of 30 uL/min for an association phase of 60 s, followed by 90 s dissociation. The chip was then regenerated by 10 mM Glycine-HCl pH1.5 after each binding cycle. For IL-2Rγ binding assay, IL-2 variants were mixed with W369-hPro2.ECD.His as 1:1 before assay, were detected by SPR using Biacore 8K. W3XX115-hPro1.ECD.His was captured on anti-His immobilized CM5 sensor chip (cytiva). The mixture were injected over the sensor chip as described above. The sensorgrams of blank surface and buffer channel were subtracted from the test sensorgrams. The experimental data was fitted by steady state affinity model. Molecular weight of W3XX115-hPro1.ECD.His or W369-hPro1.ECD.His was used to calculate the molar concentration of analyte.
For T3U0.E44-1 and T2U0.E44-33, no binding to IL-2Rα was detected.

In assay [2] the target is T1, W3XX115-T2U0.E44-6.uIgG4V322. In words: SPR Biacore 8K; set-up for IL-2Rβ not described.

B1: W3XX115-hPro1.ECD.His, IL2Rα ECD (receptor)
chain: ELCDDDPPEIPHATFKAMAYKEGTMLNCECKRGFRRIKSGSLYMLCTGNSSHSSWDNQCQCTSSATRNTTKQVTPQPEEQKERKTTEMQSPMQPVDQASLPGHCREPPPWENEATERIYHFVVGQMVYYQCVQGYRALHRGPAESVCKMTHGKTRWTQPQLICTGEMETSQFPGEEKPQASPEGRPESETSCHHHHHH
notes: Entry includes the C-terminal 6xHis tag; also called CD25
Molecule B1 gave a Kd in assay [1] of 98.2 nM.

B2: W369-hPro2.ECD.His, IL2Rβ ECD (receptor)
chain: AVNGTSQFTCFYNSRANISCVWSQDGALQDTSCQVHAWPDRRRWNQTCELLPVSQASWACNLILGAPDSQKLTTVDIVTLRVLCREGVRWRVMAIQDFKPFENLRLMAPISLQVVHVETHRCNISWEISQASHYFERHLEFEARTLSPGHTWEEAPLLTLKQKQEWICLETLTPDTQYEFQVRVKPLQGEFTTWSPWSQPLAFRTKPAALGKDLEGGGGSGGGGHHHHHH
notes: Entry includes linker and C-terminal 6xHis tag; also called CD122
Take B2: in assay [2], the affinity, expressed as Kd, was 1010 nM.
